{"source": "paper PMC8945002", "origin": "cited, not measured here", "target": "BfrB (recombinant) (Pseudomonas aeruginosa) (UniProt Q9HY79)", "sequence (Q9HY79 whole entry)": "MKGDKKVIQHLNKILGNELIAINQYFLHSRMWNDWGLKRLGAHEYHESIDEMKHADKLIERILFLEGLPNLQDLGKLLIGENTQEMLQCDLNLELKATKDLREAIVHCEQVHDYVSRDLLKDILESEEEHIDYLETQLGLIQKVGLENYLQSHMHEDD", "experiment": "SPR"}
{"substance": "Bfd (from UniProt Q9HY80)", "values": [{"measurement": "Kd", "value": 3.3, "unit": "µM"}]}
